From paper PMC6297355 (2018)

B1: BAG3^WT (recombinant) (natural protein)
chain: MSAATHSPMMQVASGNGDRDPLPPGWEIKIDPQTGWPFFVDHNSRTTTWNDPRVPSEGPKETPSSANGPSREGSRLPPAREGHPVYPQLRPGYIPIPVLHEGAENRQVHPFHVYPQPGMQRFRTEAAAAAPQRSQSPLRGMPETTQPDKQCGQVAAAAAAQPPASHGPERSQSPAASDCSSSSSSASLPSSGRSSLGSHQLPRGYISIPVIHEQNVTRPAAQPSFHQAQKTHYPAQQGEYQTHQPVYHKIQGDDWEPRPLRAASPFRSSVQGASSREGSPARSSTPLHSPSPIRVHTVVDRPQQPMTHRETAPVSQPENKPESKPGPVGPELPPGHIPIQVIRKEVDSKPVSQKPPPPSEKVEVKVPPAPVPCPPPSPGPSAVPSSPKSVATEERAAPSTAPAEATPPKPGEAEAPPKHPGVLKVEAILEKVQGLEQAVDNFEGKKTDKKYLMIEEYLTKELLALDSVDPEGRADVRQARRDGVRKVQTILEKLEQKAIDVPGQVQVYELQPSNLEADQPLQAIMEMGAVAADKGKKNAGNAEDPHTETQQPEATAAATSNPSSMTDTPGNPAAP
B2: BAG3 with deletion of both IPV motifs (recombinant) (natural protein)
chain: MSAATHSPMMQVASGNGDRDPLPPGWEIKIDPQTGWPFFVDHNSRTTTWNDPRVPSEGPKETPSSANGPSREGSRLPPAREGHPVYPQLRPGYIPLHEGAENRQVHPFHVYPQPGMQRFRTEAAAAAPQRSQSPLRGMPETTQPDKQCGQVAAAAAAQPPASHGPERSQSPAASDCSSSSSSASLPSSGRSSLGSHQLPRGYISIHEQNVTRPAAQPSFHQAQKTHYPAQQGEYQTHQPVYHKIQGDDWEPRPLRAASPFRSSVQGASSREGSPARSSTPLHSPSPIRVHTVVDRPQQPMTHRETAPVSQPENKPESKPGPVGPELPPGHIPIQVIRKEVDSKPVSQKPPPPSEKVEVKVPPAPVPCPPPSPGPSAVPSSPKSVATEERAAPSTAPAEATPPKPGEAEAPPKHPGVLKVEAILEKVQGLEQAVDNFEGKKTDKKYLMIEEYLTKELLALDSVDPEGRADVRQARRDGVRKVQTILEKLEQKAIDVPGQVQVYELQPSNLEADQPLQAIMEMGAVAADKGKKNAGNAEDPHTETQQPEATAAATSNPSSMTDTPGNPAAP
B3: BAG3 with complete deletion of the IPV2 motif (recombinant) (natural protein)
chain: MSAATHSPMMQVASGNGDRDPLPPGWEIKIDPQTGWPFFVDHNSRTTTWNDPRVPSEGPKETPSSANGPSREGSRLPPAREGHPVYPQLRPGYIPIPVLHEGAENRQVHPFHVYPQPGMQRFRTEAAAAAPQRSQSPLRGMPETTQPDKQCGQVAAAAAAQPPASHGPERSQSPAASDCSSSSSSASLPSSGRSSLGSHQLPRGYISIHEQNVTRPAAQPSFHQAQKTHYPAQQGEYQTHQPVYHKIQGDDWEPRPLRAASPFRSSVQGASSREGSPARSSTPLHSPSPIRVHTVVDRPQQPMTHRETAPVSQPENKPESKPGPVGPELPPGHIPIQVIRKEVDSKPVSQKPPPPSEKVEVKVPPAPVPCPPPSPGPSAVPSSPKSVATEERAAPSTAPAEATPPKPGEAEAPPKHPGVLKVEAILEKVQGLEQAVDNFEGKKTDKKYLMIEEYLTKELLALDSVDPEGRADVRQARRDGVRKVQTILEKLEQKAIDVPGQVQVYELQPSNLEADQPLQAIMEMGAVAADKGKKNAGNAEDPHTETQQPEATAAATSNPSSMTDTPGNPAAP

target: HSPB1c/Hsp27c (model human HSPB fragment) (human, UniProt P04792 80-176); assay: ITC
Sequence (P04792 80-176): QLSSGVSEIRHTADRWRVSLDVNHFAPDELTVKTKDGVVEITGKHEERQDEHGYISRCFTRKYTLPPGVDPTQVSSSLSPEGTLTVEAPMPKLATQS

Binder | Kd
B1 | 490 nM
B2 | > 100000 nM
B3 | 2000 nM
